The assay concerns the target T1, rhCD6FC/Chimera (R and D systems) (human, UniProt P30203 25-398).
T1 construct: Bought reagent; also called CD6 receptor; Fc part of the bought chimera not given
T1 sequence (looked up): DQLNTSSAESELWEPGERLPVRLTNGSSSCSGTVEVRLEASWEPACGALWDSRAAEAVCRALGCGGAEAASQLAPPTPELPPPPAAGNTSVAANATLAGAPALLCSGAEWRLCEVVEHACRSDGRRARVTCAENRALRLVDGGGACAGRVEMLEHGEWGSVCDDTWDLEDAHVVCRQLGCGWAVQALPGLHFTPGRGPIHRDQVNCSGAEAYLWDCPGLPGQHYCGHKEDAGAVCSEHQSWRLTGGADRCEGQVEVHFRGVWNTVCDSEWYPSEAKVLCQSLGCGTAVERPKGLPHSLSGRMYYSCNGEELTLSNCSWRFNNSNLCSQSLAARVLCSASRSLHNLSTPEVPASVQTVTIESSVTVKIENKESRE
The assay can be described thus: ELISA, plate-bound rhCD6-Fc, T1h 0.2 mg/ml with varying rhALCAM-Fc, anti human IgG (Fab)2 ALP detection. The procedure:
The rhCD6FC/Chimera (R and D systems) (100 μg/ml) was diluted in coating buffer and 100 μl was added to each well of a 96 well Nunc-Maxisorp plate. The plate was then incubated at 4° C. overnight. The Plate was washed thrice with PBS Tween 20. Subsequently, 200 μl of blocking solution (2% BSA+0.1%Tween 20 in 1× PBS) was added and incubated for 1 hour at 37° C. After incubation, the plate was washed again with PBS Tween thrice, followed by the addition of T1h monoclonal antibody (0.2 mg/ml) and .rhALCAMFc (R and D systems) at varying concentrations. This was then incubated for an hour at 37° C. The plate was washed 3 times subsequently with PBS Tween. To the wells 200 μl of anti human IgG (Fab)₂ ALP (1:20000) diluted in blocking buffer was added and incubated for 1 hour at 37° C. The plate was washed thrice with PBS tween and 200 μl of p-Nitrophenyl Phosphate (PNPP) substrate is added to each well and incubated at 37° C. till colour develops around 15 minutes. Reading was taken at 405 nm using a BIOTEK Micro Plate Reader.
On the technique in general: ELISA stands for enzyme-linked immunosorbent assay.

B1: T1h, humanized IgG1 isotype anti-CD6 monoclonal antibody (antibody, V domains shown)
VH: EVQLVESGGGLVKPGGSLKLSCAASGFKFSRYAMSWVRQAPGKRLEWVATISSGGSYIYYPDSVKGRFTISRDNVKNTLYLQMSSLRSEDTAMYYCARRDYDLDYFDSWGQGTLVTVSS
VL: DIQMTQSPSSLSASVGDRVTITCKASRDIRSYLTWYQQKPGKAPKTLIYYATSLADGVPSRFSGSGSGQDYSLTISSLESDDTATYYCLQHGESPFTLGSGTKLEIK
notes: also called humanized IOR-T1; sT1h
Consider B1, for which the binding result was “binds”.
